From patent US20080166343A1 (CSL, published 2008)

How the values were obtained:
[1] = biological target: T1, human IL-13Rα1 on cells (NHDF cells; cells of whole human blood) (human, UniProt P78552 27-427); assay: cell-based or functional assay
T1 sequence: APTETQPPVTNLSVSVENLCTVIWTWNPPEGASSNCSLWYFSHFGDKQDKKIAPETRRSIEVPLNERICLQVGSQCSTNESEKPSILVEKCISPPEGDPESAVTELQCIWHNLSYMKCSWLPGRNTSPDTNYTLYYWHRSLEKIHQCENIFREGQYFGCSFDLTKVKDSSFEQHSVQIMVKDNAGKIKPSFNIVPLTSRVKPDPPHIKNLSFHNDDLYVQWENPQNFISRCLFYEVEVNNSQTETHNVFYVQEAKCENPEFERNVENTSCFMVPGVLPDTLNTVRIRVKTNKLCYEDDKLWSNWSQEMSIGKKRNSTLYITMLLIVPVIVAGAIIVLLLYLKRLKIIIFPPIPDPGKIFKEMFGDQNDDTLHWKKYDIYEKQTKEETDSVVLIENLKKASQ

[2] = biological target: T1, human IL-13Rα1 on cells (NHDF cells; …); assay: cell-based or functional assay; remark: listed apart in the source

B1: 10G5-3 (antibody, human IgG4 S228P, kappa, V domains shown)
VH: EVQLVQSGAEVKKPGESLKISCKGSGYSFTSYWIGWVRQMPGKGLEWMGVIYPGDSYTRYSPSFQGQVTISADKSISTAYLQWSSLKASDTAMYYCARMPNWGSFDYWGQGTLVTVSS
VL: EIVLTQSPGTLSLSPGERATLSCRASQSISSSYLAWYQQKPGQAPRLLIYGASSRATGIPDRFSGSGSGTDFTLTISRLEPEDFAVYYCQQYEAFGQGTKVEIKR
[1]
  EC50, inhibition of eotaxin release from NHDF cells upon stimulation by IL-4: 0.983 µg/mL
[2]
  EC50, inhibition of eotaxin release from NHDF cells upon stimulation by IL-13: 0.614 µg/mL
